Results from publication PMC10786891, “Massively parallel profiling of RNA-targeting CRISPR-Cas13d”.
Where a chain is given by its changes, count along the chain named. Names may count otherwise.

T1: EsCas13d, nuclease-dead (Eubacterium siraeum, UniProt B0MS50, R295A;H300A;R849A;H854A)
T1 sequence: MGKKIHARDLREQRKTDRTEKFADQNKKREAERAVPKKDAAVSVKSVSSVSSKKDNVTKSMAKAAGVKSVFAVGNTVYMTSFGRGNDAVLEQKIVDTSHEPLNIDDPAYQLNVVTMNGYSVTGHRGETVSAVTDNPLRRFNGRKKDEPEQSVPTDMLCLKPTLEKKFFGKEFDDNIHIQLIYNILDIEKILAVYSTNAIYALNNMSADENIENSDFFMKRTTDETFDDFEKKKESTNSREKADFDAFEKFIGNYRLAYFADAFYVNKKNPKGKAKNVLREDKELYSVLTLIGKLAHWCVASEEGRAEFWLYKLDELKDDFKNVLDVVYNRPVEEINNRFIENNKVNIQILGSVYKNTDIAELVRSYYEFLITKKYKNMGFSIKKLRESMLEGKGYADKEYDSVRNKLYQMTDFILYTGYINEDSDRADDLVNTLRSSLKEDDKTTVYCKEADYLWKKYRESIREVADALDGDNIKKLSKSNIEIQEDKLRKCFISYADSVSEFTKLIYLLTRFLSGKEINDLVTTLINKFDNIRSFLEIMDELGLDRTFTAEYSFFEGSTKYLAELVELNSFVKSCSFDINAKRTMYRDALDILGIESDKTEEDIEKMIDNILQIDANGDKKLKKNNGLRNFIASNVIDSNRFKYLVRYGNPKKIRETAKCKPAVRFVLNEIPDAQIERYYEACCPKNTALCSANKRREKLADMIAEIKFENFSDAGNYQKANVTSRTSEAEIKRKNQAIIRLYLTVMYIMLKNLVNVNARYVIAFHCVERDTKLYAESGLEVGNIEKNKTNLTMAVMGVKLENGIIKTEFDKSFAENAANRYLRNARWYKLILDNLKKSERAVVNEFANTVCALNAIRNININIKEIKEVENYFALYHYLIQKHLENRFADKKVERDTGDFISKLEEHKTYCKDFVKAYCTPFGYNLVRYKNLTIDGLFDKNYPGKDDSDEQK

B1: target 1 U3A,G12U (mixed)
RNA 1: CACCCGUGCAAAAAUGCAGGGGUCUAAAACUGAGCGGAUAACCUCUCUAUGG
RNA 2: GGGAAUGGAUCCACAUCUACGAAUUCGUACCAUAGAGAGUUUAUCCGCACACCGAGAUCGGAAGAGCACACGU
B2: target 1 insC 3' of 15,insA 3' of 13 (mixed)
RNA 1: B1 RNA 1
RNA 2: GGGAAUGGAUCCACAUCUACGAAUUCGUACCAUAGAGCAGAGUUAUCCGCUCACCGAGAUCGGAAGAGCACACGU
B3: target 1 insC 3' of 18,insG 3' of 10 (mixed)
RNA 1: B1 RNA 1
RNA 2: B2 RNA 2 with G35C, A36G, G37A, C38G, A41G, G42U, U44G
B4: target 1 U10A,U19A (mixed)
RNA 1: B1 RNA 1
RNA 2: B1 RNA 2 with U33A, U40G, U42A, A49U
B5: target 1 G5C,C7G (mixed)
RNA 1: B1 RNA 1
RNA 2: B1 RNA 2 with U40G, C45G, G47C, A49U
B6: target 1 insG 3' of 11,insU 3' of 5 (mixed)
RNA 1: B1 RNA 1
RNA 2: B2 RNA 2 with C38A, A39G, A41U, U44A, A45U, U46C, C48G, G49U
B7: target 1 G13A,A16G (mixed)
RNA 1: B1 RNA 1
RNA 2: B1 RNA 2 with A36G, G39A, U40G, A49U
B8: target 1 insU 3' of 7,insA 3' of 4 (mixed)
RNA 1: B1 RNA 1
RNA 2: B2 RNA 2 with C38A, A39G, A41U, G42U, U43A, A45C, C48G, G49C, C50A
B9: target 1 complement block 2-6 (mixed)
RNA 1: B1 RNA 1
RNA 2: B1 RNA 2 with U40G, C46G, G47C, C48G, C50G
B10: target 1 insA 3' of 7,insA 3' of 6 (mixed)
RNA 1: B1 RNA 1
RNA 2: B2 RNA 2 with C38A, A39G, A41U, G42U, U43A, A45C, U46A, C48A
B11: target 1 A1U,U10A (mixed)
RNA 1: B1 RNA 1
RNA 2: B1 RNA 2 with U40G, U42A, A49U, A51U
B12: target 1 C6G,A14C (mixed)
RNA 1: B1 RNA 1
RNA 2: B1 RNA 2 with A38C, U40G, C46G, A49U
B13: target 1 insA 3' of 13,insG 3' of 10 (mixed)
RNA 1: B1 RNA 1
RNA 2: B2 RNA 2 with C38A, A39G, G40A, A41G, G42U, U44G
B14: target 1 insG 3' of 7,insU 3' of 6 (mixed)
RNA 1: B1 RNA 1
RNA 2: B2 RNA 2 with C38A, A39G, A41U, G42U, U43A, A45C, U46G, C48U
B15: target 1 U10A (mixed)
RNA 1: B1 RNA 1
RNA 2: B1 RNA 2 with U40G, U42A, A49U
B16: target 1 U10C,U11G (mixed)
RNA 1: B1 RNA 1
RNA 2: B1 RNA 2 with U40G, U41G, U42C, A49U
B17: target 1 A1C,U10A (mixed)
RNA 1: B1 RNA 1
RNA 2: B1 RNA 2 with U40G, U42A, A49U, A51C
B18: target 1 insC 3' of 12,insA 3' of 7 (mixed)
RNA 1: B1 RNA 1
RNA 2: B2 RNA 2 with C38A, A39G, A41C, G42U, U44A, A45U, U46C, C47A
B19: target 1 C2G,A20U (mixed)
RNA 1: B1 RNA 1
RNA 2: B1 RNA 2 with A32U, U40G, A49U, C50G
B20: target 1 insC 3' of 5,insC 3' of 3 (mixed)
RNA 1: B1 RNA 1
RNA 2: GGGAAUGGAUCCACAUCUACGAAUUCGUACCAUAGAGAGGUUAUCCGCCUCCACCGAGAUCGGAAGAGCACACGU
B21: target 1 A1G,U10A (mixed)
RNA 1: B1 RNA 1
RNA 2: B1 RNA 2 with U40G, U42A, A49U, A51G
B22: target 1 insU 3' of 17,insA 3' of 11 (mixed)
RNA 1: B1 RNA 1
RNA 2: B2 RNA 2 with A36U, G37A, C38G, A41G, G42U, U43A
B23: target 1 insA 3' of 21,insG 3' of 1 (mixed)
RNA 1: B1 RNA 1
RNA 2: GGGAAUGGAUCCACAUCUACGAAUUCGUACCAAUAGAGAGGUUAUCCGCUCAGCCGAGAUCGGAAGAGCACACGU
B24: target 1 complement block 7-11 (mixed)
RNA 1: B1 RNA 1
RNA 2: B1 RNA 2 with U40G, U41A, U42A, A43U, U44A, C45G, A49U
B25: target 1 insA 3' of 17,insC 3' of 5 (mixed)
RNA 1: B1 RNA 1
RNA 2: B23 RNA 2 with A33U, U34A, A35G, G36A, U50C, C51U, A52C, G53A
B26: target 1 insG 3' of 16,insG 3' of 8 (mixed)
RNA 1: B1 RNA 1
RNA 2: B2 RNA 2 with C38G, A41G, G42U, U44A, A45U, U46G
B27: target 1 C7U,G12A (mixed)
RNA 1: B1 RNA 1
RNA 2: B1 RNA 2 with U40A, C45U, A49U
B28: target 1 insG 3' of 16,insA 3' of 11 (mixed)
RNA 1: B1 RNA 1
RNA 2: B2 RNA 2 with C38G, A41G, G42U, U43A
B29: target 1 insA 3' of 3 (mixed)
RNA 1: B1 RNA 1
RNA 2: GGGAAUGGAUCCACAUCUACGAAUUCGUACCAUAGAGAGGUUAUCCGCUACACCGAGAUCGGAAGAGCACACGU
B30: target 1 U8G,A9C (mixed)
RNA 1: B1 RNA 1
RNA 2: B1 RNA 2 with U40G, A43C, U44G, A49U
B31: target 1 insC 3' of 14,insG 3' of 8 (mixed)
RNA 1: B1 RNA 1
RNA 2: B2 RNA 2 with C38A, A39C, A41G, G42U, U44A, A45U, U46G
B32: target 1 C7A,A9C (mixed)
RNA 1: B1 RNA 1
RNA 2: B1 RNA 2 with U40G, A43C, C45A, A49U
B33: target 1 insG 3' of 18,insU 3' of 2 (mixed)
RNA 1: B1 RNA 1
RNA 2: B23 RNA 2 with A33U, U34A, A35G, A52U, G53A

The binders below were run against T1, EsCas13d, nuclease-dead (assay: crRNA (strand 1, pre-loaded); Mg2+; 40 mM Tris-HCl pH 7.5, 150 mM NaCl, 6 mM MgCl2, 1 mM DTT, 0.1% Tween-20, 0.2 mg/ml BSA; 25 C; 10 min per concentration, then washed). Details: tags: His6-TwinStrep-SUMO cleaved; N-terminal SNAP kept (SNAP-Surface 488); label: 3' end held by stalled T7 RNA polymerase.

Going from B1 to B2, the Kd rises from 7.58 ± 0.34 nM to 27.6 ± 2.8 nM (3.6-fold). The first binds more tightly here.

B3 and B4 are within 1.5-fold of each other in Kd: ~70 nM for the first, 48 ± 7 nM for the second.

Compared with B5, B6 is 2.5-fold higher in Kd: 15.8 ± 0.9 nM for the first, 39 ± 5 nM for the second. The first binds more tightly here.

Compared with B7, B8 is 3.1-fold lower in Kd: 30 ± 4 nM for the first, 9.7 ± 0.7 nM for the second. The second binds more tightly here.

First: B9
Second: B10
The Kd of the first is 1.6-fold higher: 12.3 ± 0.5 nM for the first, 7.46 ± 0.33 nM for the second. The second binds more tightly here.

Compared with B11, B12 is 1.5-fold higher in Kd: 8.8 ± 0.4 nM for the first, 13.4 ± 0.4 nM for the second.

B13 and B14 are within 1.5-fold of each other in Kd: 7.2 ± 0.5 nM for the first, 8.24 ± 0.34 nM for the second.

First: B15
Second: B16
The Kd of the first is 3.1-fold lower: 9.3 ± 0.6 nM for the first, 29.2 ± 2.6 nM for the second.

Compared with B17, B18 is 2.1-fold lower in Kd: 26.2 ± 2.2 nM for the first, 12.7 ± 0.5 nM for the second. The second binds more tightly here.

Compared with B19, B20 is 1.7-fold lower in Kd: 39 ± 7 nM for the first, 22.3 ± 1.8 nM for the second.

First: B21
Second: B22
The Kd of the first is 3.3-fold lower: 8.5 ± 0.6 nM for the first, 28 ± 7 nM for the second. The first binds more tightly here.

B23 and B24 are within 1.5-fold of each other in Kd: 15.5 ± 0.8 nM for the first, 13.3 ± 0.6 nM for the second.

B25 and B26 are within 1.5-fold of each other in Kd: 32.2 ± 2.7 nM for the first, 23.1 ± 1.9 nM for the second.

Compared with B27, B28 is 2.9-fold higher in Kd: 6.9 ± 0.4 nM for the first, 19.7 ± 1 nM for the second. The first binds more tightly here.

B29 and B30 are within 1.5-fold of each other in Kd: 8.8 ± 0.4 nM for the first, 11 ± 0.6 nM for the second.

Compared with B31, B32 is 4.8-fold lower in Kd: 65 ± 11 nM for the first, 13.6 ± 0.9 nM for the second. The second binds more tightly here.

B33 gave a Kd of 84 ± 26 nM.
